Assay results: patent US20030103975A1
pIC50: −log10 of the molar value.

Columns and labels:
[1] = target: soluble αvβ3 integrin heterodimer (Chemicon International) (UniProt P06756); assay: competition ELISA: soluble αvβ3 (5 ng/µl) on wells coated with G^919-1207 (the competitor), with increasing fibronectin
[2] = target: α3β1 integrin on human endothelial cells (TrHBMEC) (human) (UniProt P26006); assay: cell-based or functional assay
Sequence of α3β1 integrin on human endothelial cells (TrHBMEC) (human) (P26006 33-1051, chain 1 of 2): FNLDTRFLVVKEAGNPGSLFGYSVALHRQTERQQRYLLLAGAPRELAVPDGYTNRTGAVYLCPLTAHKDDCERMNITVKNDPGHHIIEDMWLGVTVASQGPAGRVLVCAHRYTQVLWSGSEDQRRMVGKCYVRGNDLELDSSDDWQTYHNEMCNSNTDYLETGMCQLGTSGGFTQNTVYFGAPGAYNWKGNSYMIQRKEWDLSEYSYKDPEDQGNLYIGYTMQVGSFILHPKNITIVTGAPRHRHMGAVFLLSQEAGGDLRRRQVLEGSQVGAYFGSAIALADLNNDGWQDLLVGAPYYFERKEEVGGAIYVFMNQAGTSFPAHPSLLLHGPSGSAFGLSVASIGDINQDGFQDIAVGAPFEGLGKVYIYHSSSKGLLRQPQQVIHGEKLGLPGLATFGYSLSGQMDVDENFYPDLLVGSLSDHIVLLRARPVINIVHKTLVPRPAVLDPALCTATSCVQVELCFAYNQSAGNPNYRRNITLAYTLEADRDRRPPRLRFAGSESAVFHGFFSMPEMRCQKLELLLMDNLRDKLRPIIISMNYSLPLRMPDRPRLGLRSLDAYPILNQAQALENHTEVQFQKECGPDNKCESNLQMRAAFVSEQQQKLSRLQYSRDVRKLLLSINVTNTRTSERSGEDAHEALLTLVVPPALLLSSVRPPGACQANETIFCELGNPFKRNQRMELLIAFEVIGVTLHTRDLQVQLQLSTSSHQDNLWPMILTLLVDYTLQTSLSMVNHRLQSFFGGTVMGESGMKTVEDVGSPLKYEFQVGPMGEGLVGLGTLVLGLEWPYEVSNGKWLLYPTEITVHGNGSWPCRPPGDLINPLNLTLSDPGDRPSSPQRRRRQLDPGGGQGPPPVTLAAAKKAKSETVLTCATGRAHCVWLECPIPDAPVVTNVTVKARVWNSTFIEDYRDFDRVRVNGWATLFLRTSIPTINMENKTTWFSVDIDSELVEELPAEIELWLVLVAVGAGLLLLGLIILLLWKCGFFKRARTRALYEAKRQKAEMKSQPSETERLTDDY
Sequence of α3β1 integrin on human endothelial cells (TrHBMEC) (human) (P05556 21-798, chain 2 of 2, further chain): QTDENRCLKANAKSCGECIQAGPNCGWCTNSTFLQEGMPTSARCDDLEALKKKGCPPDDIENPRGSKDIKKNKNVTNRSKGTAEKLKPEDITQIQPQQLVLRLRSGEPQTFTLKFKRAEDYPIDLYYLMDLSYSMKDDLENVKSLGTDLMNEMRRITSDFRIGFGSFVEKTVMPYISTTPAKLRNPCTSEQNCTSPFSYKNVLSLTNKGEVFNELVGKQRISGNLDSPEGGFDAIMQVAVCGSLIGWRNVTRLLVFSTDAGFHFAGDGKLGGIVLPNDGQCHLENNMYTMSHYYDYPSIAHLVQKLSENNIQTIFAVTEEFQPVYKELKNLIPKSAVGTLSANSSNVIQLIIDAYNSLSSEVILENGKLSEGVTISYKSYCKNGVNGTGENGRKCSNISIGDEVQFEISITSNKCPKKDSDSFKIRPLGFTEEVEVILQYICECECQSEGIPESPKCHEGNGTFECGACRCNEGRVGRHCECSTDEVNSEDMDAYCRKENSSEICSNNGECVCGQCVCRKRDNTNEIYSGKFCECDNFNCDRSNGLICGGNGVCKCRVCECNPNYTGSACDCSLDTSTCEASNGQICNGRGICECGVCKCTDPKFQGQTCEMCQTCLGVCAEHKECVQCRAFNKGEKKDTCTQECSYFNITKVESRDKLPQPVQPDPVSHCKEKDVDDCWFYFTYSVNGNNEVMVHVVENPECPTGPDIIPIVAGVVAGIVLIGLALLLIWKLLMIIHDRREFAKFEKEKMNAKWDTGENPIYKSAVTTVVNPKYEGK

Sequence of human fibronectin (BD Biosciences), P02751 32-2296 (ligand) (P02751 other isoform, or with tags, fused parts or gaps limits assumed): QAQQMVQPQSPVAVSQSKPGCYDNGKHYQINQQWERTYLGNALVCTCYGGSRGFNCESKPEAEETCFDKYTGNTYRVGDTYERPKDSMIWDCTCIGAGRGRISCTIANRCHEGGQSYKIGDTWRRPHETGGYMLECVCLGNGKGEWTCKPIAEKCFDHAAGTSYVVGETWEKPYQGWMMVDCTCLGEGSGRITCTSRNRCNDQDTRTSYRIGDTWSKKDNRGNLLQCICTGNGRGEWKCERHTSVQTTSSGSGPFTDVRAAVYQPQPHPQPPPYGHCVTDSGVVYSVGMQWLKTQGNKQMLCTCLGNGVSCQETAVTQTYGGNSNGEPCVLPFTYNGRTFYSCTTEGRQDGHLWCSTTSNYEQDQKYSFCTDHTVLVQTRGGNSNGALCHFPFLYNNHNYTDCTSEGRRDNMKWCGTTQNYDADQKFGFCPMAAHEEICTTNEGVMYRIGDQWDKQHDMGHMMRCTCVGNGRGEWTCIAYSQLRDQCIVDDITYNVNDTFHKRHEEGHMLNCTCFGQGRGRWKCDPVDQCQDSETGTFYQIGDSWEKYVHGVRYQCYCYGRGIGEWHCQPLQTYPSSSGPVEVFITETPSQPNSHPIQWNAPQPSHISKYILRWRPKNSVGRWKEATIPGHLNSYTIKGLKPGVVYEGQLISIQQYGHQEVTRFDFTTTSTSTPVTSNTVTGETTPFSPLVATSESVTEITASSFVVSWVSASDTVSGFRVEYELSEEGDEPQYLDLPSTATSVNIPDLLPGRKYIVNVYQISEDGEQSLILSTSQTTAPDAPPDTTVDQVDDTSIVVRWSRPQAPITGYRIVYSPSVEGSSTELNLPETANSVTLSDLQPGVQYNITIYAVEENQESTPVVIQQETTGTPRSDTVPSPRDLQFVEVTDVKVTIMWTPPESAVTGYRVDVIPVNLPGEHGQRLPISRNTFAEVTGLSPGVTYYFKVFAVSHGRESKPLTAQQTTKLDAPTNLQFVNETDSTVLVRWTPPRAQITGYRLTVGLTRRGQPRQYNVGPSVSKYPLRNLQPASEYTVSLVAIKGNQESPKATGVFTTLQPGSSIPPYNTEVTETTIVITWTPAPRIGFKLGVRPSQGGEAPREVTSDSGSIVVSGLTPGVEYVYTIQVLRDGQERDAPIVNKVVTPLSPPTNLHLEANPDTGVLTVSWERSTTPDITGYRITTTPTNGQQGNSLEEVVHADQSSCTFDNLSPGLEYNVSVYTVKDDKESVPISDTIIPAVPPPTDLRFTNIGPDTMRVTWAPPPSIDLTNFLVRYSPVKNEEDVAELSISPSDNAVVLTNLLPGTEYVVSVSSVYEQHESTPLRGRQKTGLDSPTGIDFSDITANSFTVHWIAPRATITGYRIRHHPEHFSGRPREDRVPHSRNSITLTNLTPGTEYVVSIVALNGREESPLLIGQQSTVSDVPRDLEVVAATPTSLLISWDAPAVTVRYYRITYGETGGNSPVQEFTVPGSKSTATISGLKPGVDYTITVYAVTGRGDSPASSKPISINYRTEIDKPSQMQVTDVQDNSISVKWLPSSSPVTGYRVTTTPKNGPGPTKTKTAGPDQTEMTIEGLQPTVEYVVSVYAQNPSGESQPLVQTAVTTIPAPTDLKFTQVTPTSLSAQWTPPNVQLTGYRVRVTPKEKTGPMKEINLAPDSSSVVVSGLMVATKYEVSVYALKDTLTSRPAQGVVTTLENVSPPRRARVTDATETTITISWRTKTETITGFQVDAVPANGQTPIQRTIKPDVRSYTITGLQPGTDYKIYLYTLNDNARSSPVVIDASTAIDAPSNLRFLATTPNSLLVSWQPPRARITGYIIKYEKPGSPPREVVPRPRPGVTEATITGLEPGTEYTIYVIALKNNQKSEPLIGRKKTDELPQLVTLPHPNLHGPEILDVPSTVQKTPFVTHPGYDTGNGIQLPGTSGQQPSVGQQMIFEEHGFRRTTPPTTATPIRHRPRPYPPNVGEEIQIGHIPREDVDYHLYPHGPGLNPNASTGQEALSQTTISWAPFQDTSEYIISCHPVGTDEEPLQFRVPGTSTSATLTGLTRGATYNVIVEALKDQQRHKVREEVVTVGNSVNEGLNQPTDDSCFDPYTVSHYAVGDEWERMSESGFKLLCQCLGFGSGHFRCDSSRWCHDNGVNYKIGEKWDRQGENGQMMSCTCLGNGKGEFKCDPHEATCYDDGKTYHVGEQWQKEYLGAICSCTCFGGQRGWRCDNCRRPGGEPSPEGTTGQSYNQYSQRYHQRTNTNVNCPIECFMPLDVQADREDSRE

Substance | pIC50 [1] | inhibition of endothelial cell adhesion to laminin 5 by a combination of antibodies against the α3 and α6 integrin subunits [2] | inhibition of endothelial cell adhesion to laminin 5 by antibody 6S6 against β1 integrin [2] | inhibition of endothelial cell adhesion to laminin 5 by antibody LM609 against αvβ3 integrin [2]
human fibronectin (BD Biosciences), P02751 32-2296 (ligand) | 7.08 |  |  | 
laminin 5 derived from conditioned medium of cultured epithelial cells (ligand) |  | 40% | > 80% | 60%
